Test system: Bacillus subtilis DB104 (SP-AmyQ fusion secretion)
Assay: AmyQ secretion efficiency, weighted average sort bin (1 = best secretion, 10 = worst) (bin number (weighted average, 1-10)); higher = lower secretion efficiency
How it was run: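 In this assay, the secretion score is defined as the average bin number weighted by read frequency, normalised to beads per bin, with low-abundance sequences not counted. B. subtilis DB104 cells expressing mature AmyQ behind designed signal peptides (amyE-integrated) were enclosed with fluorescein-starch in ~65 nL alginate beads at about 0.3 cells per bead. Beads grew about 13 h at room temperature, were stained with nile red, and occupied beads went into 10 equally populated green/red fluorescence ratio bins by large-particle flow cytometry, whose amplicons were Illumina-sequenced.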

| Sequence | AmyQ secretion efficiency |
| --- | --- |
| MKKCLAVTLVFGSMSFPTLTNSGGFKE | 4.92 |
| MFMMSTNNFKRFIAAFLVLALMISLVPADVLAKST | 2.59 |
| MFKKHTISLLIIFLLASAVLAKPIEAHDD | 3.1 |
| MTMLRKIIGWILLLCIIPLFAFTVIASRKEV | 6.1 |
| MLKKVILAAFILVGSTLGEDSFSSDASAKHV | 4.32 |
| MKKIVSILFMFGLVMGFSQFQPSTVFARRK | 5.68 |
| MKKAFILSAAAAVGLFTFGGVQQASMKEL | 5.04 |
| MLCVMMLLFSAIASFPVSRQAKDQ | 7.53 |
| MRFTKVRRKKSVLGLAAVFPLTAQAEKA | 7.85 |
| MRKKLKWLSFLLGFIILLFLFDEEEDDFSNNDS | 5.38 |
| MLFLLVSLRVWMVFLMNWVTPDRKTAAAAVY | 6.62 |
| MFNRLFRVCFLAALIMAFTVYAQKP | 6.93 |
| MRKKRVITCVMAASLTLGSLLPAGYASAADD | 5.09 |
| MKKAFLVFLSVVLVTTVFLVKQQESVPQAKQL | 7.73 |
| MAIIIAIIAAVIVIAALITFNRNASPG | 6.99 |
| MLKRTSFVSSSSLFISSAVLLSILLPSGQAHAQSA | 1.71 |
| MKRFSTAYLLLGILCSAAVFLIGAPSRALGADD | 3.2 |
| MGLGKKLKKRKRRSFMSLSISLPGVQAAEG | 7.65 |
| MAIIIAIIAAVIVIAALITFNVLNASPG | 6.68 |
| MKKWLKRKKSLAIAIVLFMYTKGEAKAAGM | 7.31 |
| MKKWIYVVLVLSIAGIGGFSVHAKKR | 6.58 |
| MKWMCSICCAAVLLAGGASQAEAV | 3.1 |
| MKRLFMKASLVLFAVVFVFAVKGAPAKGETH | 2.19 |
| MTKKAWFLPLVCVLLISGWLAPAASASVQTT | 2.48 |
